Measurements as given in US20140274782A1 (Stanford University, published 2014).

Columns and labels:
Experiment in all cases: ProtoArray, GST-treated control array;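 further: human protein microarray (about 9500 recombinant proteins) incubated overnight with GST alone plus SAM cofactor as the negative control for G9a SET domain methylation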
[1] = target: T1, C2orf43-chromosome 2 open reading frame 43 (C2orf43) (human, UniProt Q9H6V9 1-325, limits assumed)
T1 sequence (looked up): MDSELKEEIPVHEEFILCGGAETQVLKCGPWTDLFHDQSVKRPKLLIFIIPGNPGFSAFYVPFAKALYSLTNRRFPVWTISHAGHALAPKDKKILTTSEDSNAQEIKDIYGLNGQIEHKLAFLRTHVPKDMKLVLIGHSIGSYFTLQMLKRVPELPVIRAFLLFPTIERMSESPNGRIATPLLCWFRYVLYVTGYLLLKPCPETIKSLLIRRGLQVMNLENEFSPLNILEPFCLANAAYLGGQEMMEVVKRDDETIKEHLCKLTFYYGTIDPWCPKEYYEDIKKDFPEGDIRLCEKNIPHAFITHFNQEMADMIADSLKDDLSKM

[2] = target: HPCAL4-hippocalcin like 4 (HPCAL4) (human, UniProt Q9UM19 1-191)
[3] = target: T2, CUTC-cutC copper transporter homolog (E. coli) (CUTC) (human, UniProt Q9NTM9 1-273)
T2 sequence (looked up): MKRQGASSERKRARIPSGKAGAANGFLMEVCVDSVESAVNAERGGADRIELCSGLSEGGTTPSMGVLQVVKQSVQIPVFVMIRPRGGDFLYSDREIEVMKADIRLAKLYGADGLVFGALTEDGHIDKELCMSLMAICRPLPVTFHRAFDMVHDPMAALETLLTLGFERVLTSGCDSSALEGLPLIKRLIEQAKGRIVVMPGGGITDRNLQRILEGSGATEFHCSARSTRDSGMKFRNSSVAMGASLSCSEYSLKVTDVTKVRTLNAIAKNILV

[4] = target: T3, STK17B-Serine/threonine-protein kinase 17B (human, UniProt O94768 1-372)
T3 sequence (looked up): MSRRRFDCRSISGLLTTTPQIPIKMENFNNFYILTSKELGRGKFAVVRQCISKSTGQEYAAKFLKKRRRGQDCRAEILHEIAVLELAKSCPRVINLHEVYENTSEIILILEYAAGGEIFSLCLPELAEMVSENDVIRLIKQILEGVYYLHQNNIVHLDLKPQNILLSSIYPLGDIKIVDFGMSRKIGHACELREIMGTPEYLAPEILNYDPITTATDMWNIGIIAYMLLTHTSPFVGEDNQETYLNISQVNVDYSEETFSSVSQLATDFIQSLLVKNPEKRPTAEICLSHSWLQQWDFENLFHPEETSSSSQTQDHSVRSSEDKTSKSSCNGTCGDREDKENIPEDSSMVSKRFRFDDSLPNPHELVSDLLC

[5] = target: LOC145788-PREDICTED: Homo sapiens hypothetical LOC145788 (LOC145788) (human)
[6] = target: T4, GFOD1-Glucose-fructose oxidoreductase domain-containing protein 1 (human, UniProt Q9NXC2 22-390, limits assumed)
T4 sequence (looked up): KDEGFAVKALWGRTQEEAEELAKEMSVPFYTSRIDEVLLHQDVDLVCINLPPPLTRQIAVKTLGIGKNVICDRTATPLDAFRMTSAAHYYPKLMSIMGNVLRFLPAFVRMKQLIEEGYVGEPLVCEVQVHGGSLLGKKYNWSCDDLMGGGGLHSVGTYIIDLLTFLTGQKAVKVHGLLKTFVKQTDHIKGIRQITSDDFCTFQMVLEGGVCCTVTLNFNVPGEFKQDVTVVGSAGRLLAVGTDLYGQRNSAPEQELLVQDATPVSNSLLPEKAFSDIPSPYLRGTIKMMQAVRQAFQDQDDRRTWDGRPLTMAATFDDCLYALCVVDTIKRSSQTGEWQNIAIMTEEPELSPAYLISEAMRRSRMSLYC

[7] = target: SERPINB2-serpin peptidase inhibitor, clade B (ovalbumin), member 2 (SERPINB2) (human, UniProt P05120 1-415)
[8] = target: MGC4473-hypothetical protein MGC4473 (MGC4473) (human)
[9] = target: TMEM97-transmembrane protein 97 (TMEM97) (human, UniProt Q5BJF2 1-176)
[10] = target: T5, UBE2S-Ubiquitin-conjugating enzyme E2 S (human, UniProt Q16763 1-222)
T5 sequence (looked up): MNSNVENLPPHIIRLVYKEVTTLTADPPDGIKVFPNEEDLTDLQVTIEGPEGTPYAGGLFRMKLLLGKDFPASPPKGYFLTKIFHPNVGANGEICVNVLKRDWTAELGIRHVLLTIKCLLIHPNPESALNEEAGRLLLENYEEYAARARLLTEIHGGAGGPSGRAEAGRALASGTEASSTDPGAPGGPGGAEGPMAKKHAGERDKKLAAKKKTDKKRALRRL

[11] = target: T6, DIRAS1-DIRAS family, GTP-binding RAS-like 1 (DIRAS1) (human, UniProt O95057 1-198, limits assumed)
T6 sequence (looked up): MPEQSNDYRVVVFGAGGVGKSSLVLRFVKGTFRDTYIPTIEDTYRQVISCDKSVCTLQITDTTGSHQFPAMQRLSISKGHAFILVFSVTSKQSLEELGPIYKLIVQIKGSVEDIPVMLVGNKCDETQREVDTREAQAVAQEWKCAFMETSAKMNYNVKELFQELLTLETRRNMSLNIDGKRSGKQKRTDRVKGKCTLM

[12] = target: LOC400500-PREDICTED: Homo sapiens hypothetical LOC400500 (LOC400500) (human)
[13] = target: KRR1-KRR1, small subunit (SSU) processome component, homolog (yeast) (KRR1) (human, UniProt Q13601 1-381, limits assumed)
Chain of KRR1-KRR1, small subunit (SSU) processome component, homolog (yeast) (KRR1) (Q13601 whole entry): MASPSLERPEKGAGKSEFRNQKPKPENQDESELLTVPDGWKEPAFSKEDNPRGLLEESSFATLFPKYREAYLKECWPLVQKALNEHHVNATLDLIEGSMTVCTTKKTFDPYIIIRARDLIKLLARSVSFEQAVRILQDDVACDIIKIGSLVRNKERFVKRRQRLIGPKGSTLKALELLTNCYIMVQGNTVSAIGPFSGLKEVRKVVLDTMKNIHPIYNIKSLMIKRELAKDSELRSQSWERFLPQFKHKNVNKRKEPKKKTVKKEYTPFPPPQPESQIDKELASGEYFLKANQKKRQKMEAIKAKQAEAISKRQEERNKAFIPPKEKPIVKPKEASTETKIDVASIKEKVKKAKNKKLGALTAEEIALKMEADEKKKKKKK

Chain of SERPINB2-serpin peptidase inhibitor, clade B (ovalbumin), member 2 (SERPINB2) (P05120 whole entry): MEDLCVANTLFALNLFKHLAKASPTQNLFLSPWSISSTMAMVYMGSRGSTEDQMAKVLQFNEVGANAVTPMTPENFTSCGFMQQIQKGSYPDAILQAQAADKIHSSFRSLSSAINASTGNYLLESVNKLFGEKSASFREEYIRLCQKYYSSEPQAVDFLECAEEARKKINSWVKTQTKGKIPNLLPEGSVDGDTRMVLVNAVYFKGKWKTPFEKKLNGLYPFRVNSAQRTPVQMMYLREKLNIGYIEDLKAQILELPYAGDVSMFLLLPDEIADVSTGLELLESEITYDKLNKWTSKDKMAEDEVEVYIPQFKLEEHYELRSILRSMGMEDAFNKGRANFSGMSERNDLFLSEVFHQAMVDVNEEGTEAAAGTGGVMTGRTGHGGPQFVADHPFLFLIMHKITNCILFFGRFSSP
Chain of TMEM97-transmembrane protein 97 (TMEM97) (Q5BJF2 whole entry): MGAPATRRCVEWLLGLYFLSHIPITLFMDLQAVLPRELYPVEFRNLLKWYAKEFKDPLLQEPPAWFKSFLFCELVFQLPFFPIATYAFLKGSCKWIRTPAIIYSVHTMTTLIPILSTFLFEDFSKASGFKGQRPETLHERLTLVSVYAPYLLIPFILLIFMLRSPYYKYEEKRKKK
Chain of HPCAL4-hippocalcin like 4 (HPCAL4) (Q9UM19 whole entry): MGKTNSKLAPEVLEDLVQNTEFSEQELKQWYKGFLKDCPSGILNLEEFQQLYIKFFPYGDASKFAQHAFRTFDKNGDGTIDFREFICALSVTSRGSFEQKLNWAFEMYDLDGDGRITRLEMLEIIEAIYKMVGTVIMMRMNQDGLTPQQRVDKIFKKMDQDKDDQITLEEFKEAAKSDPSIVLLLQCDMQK

GST Average SNR [1]: -0.147
GST Average SNR [2]: -0.871
GST Average SNR [3]: 0.667
GST Average SNR [4]: 0.575
GST Average SNR [5]: 0.224
GST Average SNR [6]: 0.413
GST Average SNR [7]: 0.54
GST Average SNR [8]: 0.0125
GST Average SNR [9]: -1.53
GST Average SNR [10]: 0.283
GST Average SNR [11]: 0.988
GST Average SNR [12]: -0.119
GST Average SNR [13]: 0.566
B1: 3× Flag-3×MBT (designed binder)
chain: EEWSSSQPATGEKKECWSWESYLEEQKAITAPVSLFQDSQAVTHNKNGFKLGMKLEGIDPQHPSMYFILTVAEVCGYRLRLHFDGYSECHDFWVNANSPDIHPAGWFEKTGHKLQPPKGYKEEEFSWSQYLRSTRAQAAPKHLFVSQSHSPPPLGFQVGMKLEAVDRMNPSLVCVASVTDVVDSRFLVHFDNWDDTYDYWCDPSSPYIHPVGWCQKQGKPLTPPQDYPDPDNFCWEKYLEETGASAVPTWAFKVRPPHSFLVNMKLEAVDRRNPALIRVASVEDVEDHRIKIHFDGWSHGYDFWIDADHPDIHPAGWCSKTGHPLQPPLGPREPSSASPGG
notes: also called Flag-tagged 3×MBT; 3xFlag-3xMBT; not shown: made by PreScission cleavage of GST-3× Flag-3×MBT
